In assay [1] the target is connexin36 (Cx36), rat, full length, fluorescently tagged (rat) (UniProt O70610). Kind of assay: FRET or BRET; acceptor bleach FRET on a confocal microscope, Neuro2a cells 48 h after transient co-transfection; read at gap junction plaques (GJP) or at vesicles; non-stimulated or with 2 mM [Ca2+]E and 2 μM ionomycin, 24 μM BAPTA-AM or 10 μM W-7; FRET distance calculated from the efficiency (Ro 5.09), threshold 10 nm.

For assay [2], the target named is Cx36 mutant G276A, rat, full length, fluorescently tagged (rat) (UniProt O70610). The description is as above.
Assay [3] addresses Cx36 mutant R278A, rat, full length, fluorescently tagged (rat) (UniProt O70610). The description is as above.
Assay [4] deals with connexin36 (Cx36), rat, full length, fluorescently tagged (rat) (UniProt O70610).

Take “calcium insensitive mutant CaM_(E1234Q) (from UniProt P0DP29 1-149) (natural protein)”: in assay [1], the FRET distance (GJP, non-stimulated) was 10.9 nm; the FRET distance (GJP, stimulated with Ca2+ and ionomycin) is 10.1 nm; the FRET distance (vesicles, non-stimulated) was 9.96 nm; the FRET distance (vesicles, stimulated with Ca2+ and ionomycin) is 10.8 nm.

On to “calmodulin (CaM), rat, full length, fluorescently tagged (from UniProt P0DP29 1-149) (natural protein)”, for which, in assay [2], the FRET distance (vesicles, non-stimulated) is 8.16 nm; the FRET distance (vesicles, stimulated with Ca2+ and ionomycin) is 7.48 nm; the FRET efficiency (vesicles, non-stimulated) is 6.61%; the FRET efficiency (vesicles, stimulated with Ca2+ and ionomycin) is 9.74%. In addition, in assay [1], the FRET distance (GJP, non-stimulated) is 9.11 nm; the FRET distance (GJP, stimulated with Ca2+ and ionomycin) is 9.61 nm; the FRET distance (vesicles, non-stimulated) is 9.27 nm; the FRET distance (vesicles, non-stimulated; panel of the alanine mutants) was 9.15 nm. For the same substance, in assay [1], the FRET distance (vesicles, stimulated with Ca2+ and ionomycin) is 8.09 nm; the FRET distance (vesicles, stimulated with Ca2+ and ionomycin; panel of the alanine mutants) was 7.69 nm; the FRET efficiency (GJP, 10 μM W-7) was 2.7%; the FRET efficiency (GJP, 24 μM BAPTA-AM) was 2.8%. In addition, in assay [1], the FRET efficiency (GJP, non-stimulated; FRET pair I Cx36–DsRed, CaM–ECFP) is 3.23%; the FRET efficiency (GJP, non-stimulated; FRET pair II Cx36–ECFP, CaM–DsRed) is 3.35%; the FRET efficiency (GJP, stimulated with Ca2+ and ionomycin) was 2.8%; the FRET efficiency (vesicles, non-stimulated; FRET pair I Cx36–DsRed, CaM–ECFP) is 3.65%. Also, in assay [1], the FRET efficiency (vesicles, non-stimulated; FRET pair II Cx36–ECFP, CaM–DsRed) is 3.09%; the FRET efficiency (vesicles, stimulated with Ca2+ and ionomycin) was 6.38%; the FRET efficiency (vesicles, stimulated with Ca2+ and ionomycin; panel of the alanine mutants) is 8.82%. Also, in assay [3], the FRET distance (vesicles, non-stimulated) is 9.33 nm; the FRET distance (vesicles, stimulated with Ca2+ and ionomycin) was 8.26 nm; the FRET efficiency (vesicles, non-stimulated) is 2.84%; the FRET efficiency (vesicles, stimulated with Ca2+ and ionomycin) was 6.54%. In assay [4], this substance came in with an ethidium bromide fluorescence recovery after photobleaching in pairs of Neuro2a cells expressing Cx36–ECFP (CaM of the cells), non-stimulated of 5.82%; an ethidium bromide fluorescence recovery after photobleaching in pairs of Neuro2a cells expressing Cx36–ECFP (CaM of the cells), stimulated with 2 mM [Ca2+]E and 2 μM ionomycin of 47.5%; an ethidium bromide fluorescence recovery after photobleaching in pairs of Neuro2a cells expressing Cx36–ECFP, CaM blocked with 10 μM W-7, non-stimulated of 16.6%; an ethidium bromide fluorescence recovery after photobleaching in pairs of Neuro2a cells expressing Cx36–ECFP, CaM blocked with 10 μM W-7, stimulated with 2 mM [Ca2+]E and 2 μM ionomycin of 3.77%.
